This note sets out measurements from US20200055939A1 (Genentech, published 2020).

Residue numbers refer to the chain shown, from its start.

Experiment [1] concerns the target T1, MICA008.His (human MICA*008 alpha 3 domain, His tagged) (human).
T1 construct: Also used for FPOP (expressed in CHO); also called huMICA*008 alpha 3-his; MICA*008 a3
T1 chain: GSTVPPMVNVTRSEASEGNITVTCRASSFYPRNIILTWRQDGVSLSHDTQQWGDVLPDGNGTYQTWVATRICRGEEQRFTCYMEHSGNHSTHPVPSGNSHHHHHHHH
Description: SPR, antibody captured.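 Further: SPR with antibody held by surface-bound anti-Fc while His-tagged alpha three domains flow over, Kd derived by fitting a one-to-one binding model to sensograms.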

Experiment [2] concerns the target T2, MICA004.His (human MICA*004 alpha 3 domain, His tagged) (human).
T2 construct: also called huMICA*004 alpha 3-his
T2 chain: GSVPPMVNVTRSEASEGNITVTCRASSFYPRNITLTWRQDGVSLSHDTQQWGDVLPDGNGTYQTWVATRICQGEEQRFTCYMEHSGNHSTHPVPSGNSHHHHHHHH
Description: SPR, antibody captured.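 Further: SPR with antibody held by surface-bound anti-Fc while His-tagged alpha three domains flow over, Kd derived by fitting a one-to-one binding model to sensograms.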 For orientation: SPR reads the build-up and loss of mass on a sensor chip optically.

Experiment [3] deals with T3, MICB005.His (human MICB*005 alpha 3 domain, His tagged) (human).
T3 construct: also called huMICB*005 alpha 3-his
T3 chain: T1 chain with R12C, A15V, I35T, D48N, C72R, R73Q, S90G
Kind of experiment: SPR, antibody captured.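 Further: SPR with antibody held by surface-bound anti-Fc while His-tagged alpha three domains flow over, Kd derived by fitting a one-to-one binding model to sensograms.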

The target of experiment [4] is T4, MICA002.His (human MICA*002 alpha 3 domain, His tagged) (human).
T4 construct: also called huMICA*002 alpha 3-his
T4 chain: T1 chain with S28G, R32W, I35T, T37S, R73Q
Description: SPR, antibody captured.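 Further: SPR with antibody held by surface-bound anti-Fc while His-tagged alpha three domains flow over, Kd derived by fitting a one-to-one binding model to sensograms.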

Experiment [5] addresses MICA*004 on HCC1534 cells (human, UniProt Q29983 24-383). Description: cell-based or functional assay.
The target of experiment [6] is T5, MICA*008 on MEL-JUSO cells (human, UniProt Q29983 24-317).
T5 chain: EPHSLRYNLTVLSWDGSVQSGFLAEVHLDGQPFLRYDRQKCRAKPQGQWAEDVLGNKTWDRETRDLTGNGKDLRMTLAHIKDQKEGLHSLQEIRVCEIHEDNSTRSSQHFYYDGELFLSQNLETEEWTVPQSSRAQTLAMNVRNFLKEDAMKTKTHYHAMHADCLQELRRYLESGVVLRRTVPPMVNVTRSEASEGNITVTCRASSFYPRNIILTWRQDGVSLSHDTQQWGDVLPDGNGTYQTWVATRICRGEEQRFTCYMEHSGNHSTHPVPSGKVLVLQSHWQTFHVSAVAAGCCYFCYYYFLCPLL
Description: cell-based or functional assay.

Experiment [7] deals with T6, MICB*005 on HCC1534 cells (human, UniProt Q29980 23-383).
T6 sequence (looked up): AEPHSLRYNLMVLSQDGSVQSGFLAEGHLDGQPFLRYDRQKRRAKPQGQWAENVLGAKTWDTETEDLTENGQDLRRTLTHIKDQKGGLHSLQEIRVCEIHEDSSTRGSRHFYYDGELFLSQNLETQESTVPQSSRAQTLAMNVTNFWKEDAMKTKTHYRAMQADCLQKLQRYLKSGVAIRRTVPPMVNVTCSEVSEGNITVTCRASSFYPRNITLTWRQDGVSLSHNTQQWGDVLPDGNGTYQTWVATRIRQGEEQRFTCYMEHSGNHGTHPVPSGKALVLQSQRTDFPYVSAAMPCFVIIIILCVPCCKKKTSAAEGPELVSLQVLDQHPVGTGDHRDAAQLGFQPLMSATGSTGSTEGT
Description: cell-based or functional assay.

The target in experiment [8] is T1, MICA008.His (human MICA*008 alpha 3 …). Kind of experiment: SPR (Biacore), MICA*008 alpha-3 domain.
Experiment [9] deals with T7, MICA.008.a3.T204-S297.H248N.mIgG2a.Glyco15 (human; mouse, UniProt Q29983 204-297, engineered N-linked glycosylation site H248N).
T7 construct: not shown: murine IgG2a Fc
T7 chain: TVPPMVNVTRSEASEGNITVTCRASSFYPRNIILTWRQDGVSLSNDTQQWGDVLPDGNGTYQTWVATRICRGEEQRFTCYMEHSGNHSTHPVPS
Kind of experiment: ELISA, coated variant.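 Further: ELISA with plates coated at 2 ug/ml with MICA*008 alpha 3 glycosylation variants as murine IgG2a Fc fusions, antibody binding detected by HRP anti-human IgG Fc and TMB absorbance.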

The target in experiment [10] is T8, MICA.008.a3.T204-S297.I236T.mIgG2a.Glyco13 (human; mouse, UniProt Q29983 204-297, engineered N-linked glycosylation site created by I236T).
T8 construct: not shown: murine IgG2a Fc
T8 chain: T7 chain with I33T, N45H
Description: ELISA, coated variant.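 Further: ELISA with plates coated at 2 ug/ml with MICA*008 alpha 3 glycosylation variants as murine IgG2a Fc fusions, antibody binding detected by HRP anti-human IgG Fc and TMB absorbance.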

Experiment [11] concerns the target T9, MICA.008.a3.T204-S297.E215N.mIgG2a.Glyco12 (human; mouse, UniProt Q29983 204-297, engineered N-linked glycosylation site E215N).
T9 construct: not shown: murine IgG2a Fc
T9 chain: T7 chain with E12N, N45H
Description: ELISA, coated variant.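 Further: ELISA with plates coated at 2 ug/ml with MICA*008 alpha 3 glycosylation variants as murine IgG2a Fc fusions, antibody binding detected by HRP anti-human IgG Fc and TMB absorbance.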

Experiment [12] deals with T10, MICA.008.a3.T204-S297.C-terminal insert of N298.G299.S300.mIgG2a.Glyco17 (human; mouse, UniProt Q29983 204-297, engineered N-linked glycosylation site at inserted N298).
T10 construct: not shown: murine IgG2a Fc
T10 chain: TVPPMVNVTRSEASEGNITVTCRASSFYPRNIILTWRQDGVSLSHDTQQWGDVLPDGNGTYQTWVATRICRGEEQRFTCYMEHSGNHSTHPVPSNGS
Description: ELISA, coated variant.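 Further: ELISA with plates coated at 2 ug/ml with MICA*008 alpha 3 glycosylation variants as murine IgG2a Fc fusions, antibody binding detected by HRP anti-human IgG Fc and TMB absorbance.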 On the technique in general: In an ELISA, binding on a coated surface is turned into a signal by an enzyme label.

In experiment [13] the target is T11, MICA.008.a3.R202-S297.R202N mIgG2a.Glyco11 (human; mouse, UniProt Q29983 203-297, engineered N-linked glycosylation site R202N).
T11 construct: not shown: murine IgG2a Fc
T11 chain: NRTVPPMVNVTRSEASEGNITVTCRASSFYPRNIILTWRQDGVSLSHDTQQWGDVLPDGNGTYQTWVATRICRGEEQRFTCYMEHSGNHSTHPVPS
Description: ELISA, coated variant.

In experiment [14] the target is T12, MICA.008.a3.T204-S297.R279N.mIgG2a.Glyco16 (human; mouse, UniProt Q29983 204-297, engineered N-linked glycosylation site R279N).
T12 construct: not shown: murine IgG2a Fc
T12 chain: T7 chain with N45H, R76N
Kind of experiment: ELISA, coated variant.

Experiment [15] addresses T13, MICA.008.a3.T204-S297.G243N.mIgG2a.Glyco14 (human; mouse, UniProt Q29983 204-297, engineered N-linked glycosylation site G243N).
T13 construct: not shown: murine IgG2a Fc
T13 chain: T7 chain with G40N, N45H
Kind of experiment: ELISA, coated variant.

B1: 12H10 (antibody, V domains shown)
VH: DVQLQESGPGLVKPSQPLSLTCTVTGYSITSNYAWNWIRQFPGDKLEWMGYISSSGITKSNPSLKSRISITRDTSKNQFFLQLNSLTTEDTATYYCSRWSNWSFDVWGAGTTVTVSS
VL: DIQMTQTPSSLSVSLGDRVTINCRASQDIHNYFNWYQQKPDGTIKLLIYYTSRFHSGVPSRFSGSGSGTDYSLTISNLEEEDIATYFCQQGNSLPPTFGGGTKLEIK
notes: Mouse variable domains; constant regions differ by assay
As usually defined, the Kd is the equilibrium constant for the complex coming apart. Higher therefore signals weaker binding. Consider B1, for which the Kd in [1] is 1.48 nM; in experiment [2] it was 7.02 nM; in experiment [3], 10.7 nM; in experiment [4] it was 25.8 nM; in [8], 1.9 nM. The “% max inhibition of shedding” value stood at 76% in experiment [5], 81% in experiment [6] and 54% in experiment [7]. The “EC50 of shedding inhibition” value in experiment [5] was found to be 0.0689 µg/mL; in [6], 0.0103 µg/mL; in [7], 0.139 µg/mL. Moreover, the binding result in experiment [9], in experiment [10], in experiment [11], in [12], in experiment [13] and in experiment [14] was “binds” throughout.

B2: 18G3 (antibody, V domains shown)
VH: VQLQESGPGLVKPSQSLSLTCNVTGYSITGDYAWNWIRQFPGNKLEWIGYIGYTGSTTYNPSLKSRVSITRDTSKNQFFLQLNSVTPEDTATYYCARWRNWAMDYWGLGTSVTVSS
VL: DIQMTQTPSSLSASLGDRVTISCRANQDISHYLNWYQQKPDGAVKLLIYYTSRIHSGVPSRFSGSGSGTDYSLTIANLEQEDVATYFCQQGNTPPTTFGGGTKVEIK
notes: as for B1
With B2, the Kd was found to be 2.03 nM in experiment [1]; 4.03 nM in [2]; 6.18 nM in [3]; 10.4 nM in experiment [4]; 2.6 nM in [8]. Further, the results for the “% max inhibition of shedding” value in experiment [5], in experiment [6] and in experiment [7] were 74%, 75% and 48%, respectively. Also, the “EC50 of shedding inhibition” value in experiment [5] amounted to 0.012 µg/mL; in [6], 0.0191 µg/mL; in [7], 0.0124 µg/mL. The binding result in [9], in experiment [10], in [11], in experiment [12], in experiment [13] and in experiment [14] was “binds” throughout.

B3: 20G11 (antibody, V domains shown)
VH: DVQLVESGGGLVQPGGSRKLSCAASGFTFSTFGIHWVRQAPEKGLEWVAYISYDSRTIYYADTVKGRFTISRDNPKNTLFLQMTSLRSEDTAMYYCARWAYEGGVNYFDNWGQGTTLTVSS
VL: QIVLTQSPAIMSASLGERVTMTCTATSGVSSSYLHWYQQKPGSSPKLWIYSSSNLASGVPARFSGSGSGTSYSLTIGSMEAEDAATYYCHQFHRSPLTFGTGTKVEIK
notes: Mouse hybridoma antibody; constant regions differ by assay
For the molecule B3, the Kd in experiment [1] worked out at 0.77 nM; in experiment [2] it was 1.06 nM; in experiment [3], 1.05 nM; in [4], 1.76 nM; in experiment [8] it was 3.8 nM. Also, the “% max inhibition of shedding” value in experiment [5] came to 69%; in [6], 70%; in experiment [7], 51%. Also, the entries for the “EC50 of shedding inhibition” value in experiment [5], in [6] and in experiment [7] were 0.123 µg/mL, 0.0285 µg/mL and 0.0169 µg/mL, respectively. The binding result in experiment [9], in experiment [10], in [11], in experiment [12], in [15] and in [13] was “binds” throughout.
